Data reported in patent publication US20100310573A1 (Kyowa Kirin, published 2010).
Like-named read-outs stand apart in the source and are kept apart here.

Legend:
[1] = target: T1, recombinant human CD4 (catalogue number: 514-CD/CF, manufactured by R&D Systems) (human, UniProt P01730 26-390); assay: SPR, Biacore T100; antibody captured on anti-human IgG chip, recombinant human CD4 flowed; 1:1 binding model; kd beyond the maker's measurable limit
T1 construct: Bought protein (R&D Systems); also called recombinant CD4
Experimental: (§1) In order to kinetically analyze the binding activity of anti-CD4 chimeric antibodies KM4045 to KM4049, 6G5-1 and 6G5-P to recombinant human CD4, the binding activity was measured by surface plasmon resonance method (SPR). All of the following manipulations were carried out using a Biacore T100 (manufactured by GE Healthcare Bio-Sciences). The anti-human IgG antibody was immobilized on a CM5 sensor chip (manufactured by GE Healthcare Bio-Sciences) by an amine coupling method using a Human Antibody Capture Kit (manufactured by GE Healthcare Bio-Sciences) in accordance with the protocols attached thereto. An assay sample (anti-CD4 chimeric antibodies KM4045 to KM4049) was added to be captured on the anti-human IgG antibody-immobilized chip to give 100 RU (resonance unit). Thereafter, the recombinant human CD4 (manufactured by R&D) diluted from 2500 ng/mL in five steps was allowed to run at a flow rate of 30 μL/min onto the chip, and the sensorgram corresponding to each concentration was obtained. The analysis was carried out in the 1:1 binding model using an analysis software attached to the apparatus, Biacore T100 Evaluation software (manufactured by Biacore), thereby calculating an association rate constant ka and a dissociation rate constant kd of respective antibodies for human CD4. […]

[2] = target: T1, recombinant human CD4 (catalogue …); assay: SPR, Biacore T100; antibody captured on anti-human IgG chip, recombinant human CD4 flowed; 1:1 binding model
Experimental: (§2) In order to kinetically analyze the binding activity of anti-CD4 chimeric antibodies KM4045 to KM4049, 6G5-1 and 6G5-P to recombinant human CD4, the binding activity was measured by surface plasmon resonance method (SPR). All of the following manipulations were carried out using a Biacore T100 (manufactured by GE Healthcare Bio-Sciences). The anti-human IgG antibody was immobilized on a CM5 sensor chip (manufactured by GE Healthcare Bio-Sciences) by an amine coupling method using a Human Antibody Capture Kit (manufactured by GE Healthcare Bio-Sciences) in accordance with the protocols attached thereto. An assay sample (anti-CD4 chimeric antibodies KM4045 to KM4049) was added to be captured on the anti-human IgG antibody-immobilized chip to give 100 RU (resonance unit). Thereafter, the recombinant human CD4 (manufactured by R&D) diluted from 2500 ng/mL in five steps was allowed to run at a flow rate of 30 μL/min onto the chip, and the sensorgram corresponding to each concentration was obtained. The analysis was carried out in the 1:1 binding model using an analysis software attached to the apparatus, Biacore T100 Evaluation software (manufactured by Biacore), thereby calculating an association rate constant ka and a dissociation rate constant kd of respective antibodies for human CD4.
As a result, an association rate constant ka, a dissociation rate constant kd, and a dissociation constant KD (kd/ka) of individual antibodies thus obtained are given in Table 5.

[3] = target: T1, recombinant human CD4 (catalogue …); assay: as above; remark: listed apart in the source
Experimental: as §2
The measurement of a binding activity was carried out according to the method described in Example 7(2). The association rate constant ka, the dissociation rate constant kd and the dissociation constant KD (kd/ka) of respective antibodies thus obtained are shown in Table 6.

[4] = target: T1, recombinant human CD4 (catalogue …); assay: SPR, Biacore T100; antibody captured on anti-human IgG chip, recombinant human CD4 flowed; 1:1 binding model; value beyond the maker's measurable limit (1 × 10^-5)
Experimental: as §1

[5] = target: T1, recombinant human CD4 (catalogue …); assay: Biacore T100
[6] = target: T1, recombinant human CD4 (catalogue …); assay: SPR, Biacore T100; summary sentence to Table 6

Binder | Kd [1] [pM] | kon [2] [M⁻¹ s⁻¹] | Kd [3] [nM] | koff [3] [s⁻¹] | kon [3] [M⁻¹ s⁻¹] | koff [4] [s⁻¹] | binding activity relative to the anti-CD4 chimeric antibody KM4045 [5] | Kd [6] [nM]
anti-CD4 chimeric antibody KM4045 (antibody, V domains shown, Variable regions of rat KM4065 joined to a '113F type' heavy chain constant region and a human kappa constant region; In the 113F type, part of the human IgG1 Fc is substituted with human IgG3 Fc (US2007/0148165); Expressed in FUT8 knockout CHO cells (0% fucose)) VH: EVQLVESGGGLVQPGRSMKLSCAASGFTFSNYGMAWVRQAPTKGLEWVATISYDGSITYYRDSVKGRFTISRDHAKSTLYLQMNSLRSEDTATYYCTREEQYSSWYFDFWGPGIMVTVSS VL: DIVLTQSPALAVSLGQRATISCRASQSVSISSHDLMQWYQQKPGQQPKLLIYDAFNLASGIPVRFSGSGSGTDFTLTIDPVQADDIATYYCQQSKDDPYTFGAGTKLELK | ≤ 0.0824 | 360000 | < 0.0184 | < 1e-05 | 541000 | < 1e-05 |  | 
anti-CD4 humanized antibody HV4LV6 (antibody, V domains shown, Expressed from the humanized antibody expression vector pKANTEX93) VH: EVQLVESGGGLVQPGRSMRLSCAASGFTFSNYGMAWVRQAPGKGLEWVATISYDGSITYYRDSVKGRFTISRDNSKNTLYLQMNSLRAEDTATYYCTREEQYSSWYFDFWGQGILVTVSS VL: DIQLTQSPSSLSVSLGDRATITCRASQSVSISSHDLMQWYQQKPGKQPKLLIYDAFNLASGIPSRFSGSGSGTDFTLTISSVQPEDFATYYCQQSKDDPYTFGQGTKLEIK |  |  | < 0.0248 | < 1e-05 | 403000 |  | 0.5 fold of KM4045 | ≤ 0.1
anti-CD4 humanized antibody HV4LV0 (antibody, V domains shown, Expressed from the humanized antibody expression vector pKANTEX93) VH: EVQLVESGGGLVQPGRSMRLSCAASGFTFSNYGMAWVRQAPGKGLEWVATISYDGSITYYRDSVKGRFTISRDNSKNTLYLQMNSLRAEDTATYYCTREEQYSSWYFDFWGQGILVTVSS VL: DIQLTQSPSSLSASVGDRVTITCRASQSVSISSHDLMQWYQQKPGKAPKLLIYDAFNLASGVPSRFSGSGSGTDFTLTISSLQPEDFATYYCQQSKDDPYTFGQGTKLEIK |  |  | < 0.0126 | < 1e-05 | 791000 |  | 0.5 fold of KM4045 | ≤ 0.1
